Results on two molecules are retold here after article PMC8954747 (Viruses, 2022).

By Kd is commonly meant the free concentration of one partner at which half of the binding sites on the other are occupied at equilibrium, for simple one-to-one binding. Usually stoichiometry N stands for a count of units in the complex or per binding partner.

Common to all, as to test: ITC
Conditions in all cases: both partners purified

Experiment [1] has as its target T1, human Scribble (SCRIB) PDZ1 domain (residues 725-815) (human, UniProt Q14160 725-815).
T1 construct: also called PDZ1 WT

For experiment [2], the target named is T2, human Scribble (SCRIB) PDZ2 domain (residues 860-950) (human, UniProt Q14160 860-950).
T2 construct: also called PDZ2 WT
T2 sequence (looked up): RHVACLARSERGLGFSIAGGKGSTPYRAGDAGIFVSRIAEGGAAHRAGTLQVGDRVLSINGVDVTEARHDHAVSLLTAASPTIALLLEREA

The target of experiment [3] is T3, human Scribble (SCRIB) PDZ3 domain (residues 1002-1093) (human, UniProt Q14160 1002-1093).
T3 construct: also called wild-type SCRIB PDZ3
T3 sequence (looked up): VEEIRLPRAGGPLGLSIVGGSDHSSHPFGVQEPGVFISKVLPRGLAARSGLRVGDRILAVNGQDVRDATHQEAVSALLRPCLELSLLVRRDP

In experiment [4] the target is T4, human Scribble (SCRIB) PDZ4 domain (residues 1099-1203) (human, UniProt Q14160 1099-1203).
T4 sequence (looked up): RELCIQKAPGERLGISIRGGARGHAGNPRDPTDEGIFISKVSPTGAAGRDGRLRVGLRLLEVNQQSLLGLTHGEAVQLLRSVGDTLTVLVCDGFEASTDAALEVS

T1 sequence (Q14160 725-815): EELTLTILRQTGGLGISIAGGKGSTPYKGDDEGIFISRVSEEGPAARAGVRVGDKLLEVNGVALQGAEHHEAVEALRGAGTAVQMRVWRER

KMARTIESEV [NS1 ESEV PBM peptide KMARTIESEV (H5N1 A/Viet Nam/1194/2004), 10-mer]: the Kd in experiment [1] was determined as 21.4 µM; in experiment [2] it was 18.7 µM; in experiment [3], 13.1 µM; in experiment [4] it was 12.2 µM. Further, the “stoichiometry N” value turned out to be 1.1 ± 0.1 in experiment [1], 1 ± 0.03 in experiment [2], 1.1 ± 0.1 in experiment [3] and 1 ± 0.1 in experiment [4].
For KMARTIESKV [NS1 ESKV PBM peptide KMARTIESKV (H5N1 A/chicken/Hubei/327/2004), 10-mer], the Kd was found to be 30 µM in experiment [1], 9.5 µM in experiment [2] and 12.1 µM in experiment [3]. Further, the entries for the “stoichiometry N” value in experiment [1], in experiment [2] and in experiment [3] were 1.2, 1.1 and 1.1, respectively.
